# Experimental data from US20200262877A1, “ION CHANNEL-BINDING PEPTIDES AND METHODS OF USE THEREOF” (priority 2017, published 2020).
# What was measured:
# [1] = molecular target: T1, 5HT3a (Homo sapiens, UniProt P46098); test: Ion channel panel (IonWorks Barracuda): 5HT3a; type: cell-based
# T1 construct: host or cells: HEK293 or CHO
# T1 sequence (P46098 whole entry, looked up): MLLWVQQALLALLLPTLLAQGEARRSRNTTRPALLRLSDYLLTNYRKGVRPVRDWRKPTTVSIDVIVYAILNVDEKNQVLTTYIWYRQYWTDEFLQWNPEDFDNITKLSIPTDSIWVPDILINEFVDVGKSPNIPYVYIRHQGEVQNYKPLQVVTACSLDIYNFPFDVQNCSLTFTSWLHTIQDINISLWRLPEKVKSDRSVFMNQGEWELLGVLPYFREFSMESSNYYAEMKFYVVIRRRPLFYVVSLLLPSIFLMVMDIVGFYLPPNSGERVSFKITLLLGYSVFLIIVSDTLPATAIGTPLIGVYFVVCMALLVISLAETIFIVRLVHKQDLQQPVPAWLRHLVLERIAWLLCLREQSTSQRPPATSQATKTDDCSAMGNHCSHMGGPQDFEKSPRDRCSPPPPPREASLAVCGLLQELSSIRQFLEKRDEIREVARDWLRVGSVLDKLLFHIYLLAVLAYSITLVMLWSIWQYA
# How it was run: (§1)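 Peptides were tested in duplicate at final 20 μM and 200 nM, with concentration set by amino acid analysis, in HEPES-buffered saline. They were applied for at least 5 min to HEK293 or CHO cells transfected with each channel. Currents were expressed as % inhibition, 1-(Ipeptide/Icontrol)×100, or % activation, Ipeptide/Icontrol×100, against a channel-matched reference compound.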
# [2] = molecular target: T2, Nav1.7 (Homo sapiens, UniProt Q15858); test: cell-based; type: cell-based; conditions: 100% = no change; for Activity of Nav1.7 with peptide, expressed as a percentage of the reference compound: peptide at 0.2 μM; for Activity of Nav1.7 with peptide (percentage of the reference compound): peptide at 20 μM
# T2 construct: host or cells: HEK293 or CHO
# [3] = molecular target: T3, α3β4 (Homo sapiens, UniProt P30926+P32297); test: Ion channel panel (IonWorks Barracuda): α3β4; type: cell-based; conditions: 100% = no change, <100% = inhibition
# T3 construct: host or cells: HEK293 or CHO
# How it was run: as §1
# [4] = molecular target: T4, Kv1.3 (Homo sapiens, UniProt P22001); test: cell-based; type: cell-based; conditions: 100% = no change, <100% = inhibition
# T4 construct: host or cells: HEK293 or CHO
# How it was run: as §1
# [5] = molecular target: T5, Kv1.2 (Homo sapiens, UniProt P16389); test: cell-based; type: cell-based; conditions: 100% = no change, <100% = inhibition
# T5 construct: host or cells: HEK293 or CHO
# How it was run: as §1
# [6] = molecular target: T6, Kv1.1 (Homo sapiens, UniProt Q09470); test: cell-based; type: cell-based; conditions: 100% = no change, <100% = inhibition
# T6 construct: host or cells: HEK293 or CHO
# How it was run: as §1
# [7] = molecular target: T7, α4β2 (Homo sapiens, UniProt P17787+P43681); test: Ion channel panel (IonWorks Barracuda): α4β2; type: cell-based; conditions: 100% = no change, <100% = inhibition
# T7 construct: host or cells: HEK293 or CHO
# How it was run: as §1
# [8] = molecular target: T8, Kir2.1 (Homo sapiens, UniProt P63252); test: Ion channel panel (IonWorks Barracuda): Kir2.1; type: cell-based; conditions: 100% = no change, <100% = inhibition
# T8 construct: host or cells: HEK293 or CHO
# How it was run: as §1
# [9] = molecular target: hERG (Homo sapiens, UniProt Q12809); test: in vitro; conditions: 100% = no change, <100% = inhibition
# How it was run: as §1
# [10] = molecular target: Nav1.5 (Homo sapiens, UniProt Q14524); test: in vitro; conditions: 100% = no change; for Activity of Nav1.5 with peptide, expressed as a percentage of the reference compound: peptide at 0.2 μM; for Activity of Nav1.5 with peptide (percentage of the reference compound): peptide at 20 μM
# How it was run: as §1
# [11] = molecular target: T9, TRPA1 (Homo sapiens, UniProt O75762); test: Ion channel panel (IonWorks Barracuda): TRPA1; type: cell-based; conditions: 100% = no change, <100% = inhibition
# T9 construct: host or cells: HEK293 or CHO
# How it was run: as §1
# [12] = molecular target: T10, NR2B (Homo sapiens, UniProt Q13224); test: Ion channel panel (IonWorks Barracuda): NR2B; type: cell-based; conditions: 100% = no change, <100% = inhibition
# T10 construct: host or cells: HEK293 or CHO
# How it was run: as §1
# [13] = molecular target: T11, Cav2.1 (Homo sapiens, UniProt O00555); test: cell-based; conditions: 100% = no change, <100% = inhibition
# T11 construct: host or cells: HEK293 or CHO
# How it was run: as §1
# [14] = molecular target: T12, Kv2.1 (Homo sapiens, UniProt Q14721); test: cell-based; conditions: 100% = no change, <100% = inhibition
# T12 construct: host or cells: HEK293 or CHO
# How it was run: as §1
# [15] = molecular target: T13, Cav2.2 (Homo sapiens, UniProt Q00975); test: cell-based; conditions: 100% = no change, <100% = inhibition
# T13 construct: host or cells: HEK293 or CHO
# How it was run: as §1
# [16] = test system: GABA; test: Ion channel panel (IonWorks Barracuda): GABA; type: cell-based; conditions: 100% = no change, <100% = inhibition
# How it was run: as §1
# [17] = molecular target: T14, NR2A (Homo sapiens, UniProt Q12879); test: Ion channel panel (IonWorks Barracuda): NR2A; type: cell-based; conditions: 100% = no change, <100% = inhibition
# T14 construct: host or cells: HEK293 or CHO
# How it was run: as §1
# [18] = molecular target: T15, TRPV1 (Homo sapiens, UniProt Q8NER1); test: Ion channel panel (IonWorks Barracuda): TRPV1; type: cell-based; conditions: 100% = no change, <100% = inhibition
# T15 construct: host or cells: HEK293 or CHO
# How it was run: as §1
# [19] = first of two Nav1.7 columns (probably TP1)
# [20] = second of two Nav1.7 columns (probably TP2)
# [21] = first of two Nav1.5 columns (probably TP1)
# [22] = second of two Nav1.5 columns (probably TP2)
# Chain of Nav1.5 (Q14524 whole entry): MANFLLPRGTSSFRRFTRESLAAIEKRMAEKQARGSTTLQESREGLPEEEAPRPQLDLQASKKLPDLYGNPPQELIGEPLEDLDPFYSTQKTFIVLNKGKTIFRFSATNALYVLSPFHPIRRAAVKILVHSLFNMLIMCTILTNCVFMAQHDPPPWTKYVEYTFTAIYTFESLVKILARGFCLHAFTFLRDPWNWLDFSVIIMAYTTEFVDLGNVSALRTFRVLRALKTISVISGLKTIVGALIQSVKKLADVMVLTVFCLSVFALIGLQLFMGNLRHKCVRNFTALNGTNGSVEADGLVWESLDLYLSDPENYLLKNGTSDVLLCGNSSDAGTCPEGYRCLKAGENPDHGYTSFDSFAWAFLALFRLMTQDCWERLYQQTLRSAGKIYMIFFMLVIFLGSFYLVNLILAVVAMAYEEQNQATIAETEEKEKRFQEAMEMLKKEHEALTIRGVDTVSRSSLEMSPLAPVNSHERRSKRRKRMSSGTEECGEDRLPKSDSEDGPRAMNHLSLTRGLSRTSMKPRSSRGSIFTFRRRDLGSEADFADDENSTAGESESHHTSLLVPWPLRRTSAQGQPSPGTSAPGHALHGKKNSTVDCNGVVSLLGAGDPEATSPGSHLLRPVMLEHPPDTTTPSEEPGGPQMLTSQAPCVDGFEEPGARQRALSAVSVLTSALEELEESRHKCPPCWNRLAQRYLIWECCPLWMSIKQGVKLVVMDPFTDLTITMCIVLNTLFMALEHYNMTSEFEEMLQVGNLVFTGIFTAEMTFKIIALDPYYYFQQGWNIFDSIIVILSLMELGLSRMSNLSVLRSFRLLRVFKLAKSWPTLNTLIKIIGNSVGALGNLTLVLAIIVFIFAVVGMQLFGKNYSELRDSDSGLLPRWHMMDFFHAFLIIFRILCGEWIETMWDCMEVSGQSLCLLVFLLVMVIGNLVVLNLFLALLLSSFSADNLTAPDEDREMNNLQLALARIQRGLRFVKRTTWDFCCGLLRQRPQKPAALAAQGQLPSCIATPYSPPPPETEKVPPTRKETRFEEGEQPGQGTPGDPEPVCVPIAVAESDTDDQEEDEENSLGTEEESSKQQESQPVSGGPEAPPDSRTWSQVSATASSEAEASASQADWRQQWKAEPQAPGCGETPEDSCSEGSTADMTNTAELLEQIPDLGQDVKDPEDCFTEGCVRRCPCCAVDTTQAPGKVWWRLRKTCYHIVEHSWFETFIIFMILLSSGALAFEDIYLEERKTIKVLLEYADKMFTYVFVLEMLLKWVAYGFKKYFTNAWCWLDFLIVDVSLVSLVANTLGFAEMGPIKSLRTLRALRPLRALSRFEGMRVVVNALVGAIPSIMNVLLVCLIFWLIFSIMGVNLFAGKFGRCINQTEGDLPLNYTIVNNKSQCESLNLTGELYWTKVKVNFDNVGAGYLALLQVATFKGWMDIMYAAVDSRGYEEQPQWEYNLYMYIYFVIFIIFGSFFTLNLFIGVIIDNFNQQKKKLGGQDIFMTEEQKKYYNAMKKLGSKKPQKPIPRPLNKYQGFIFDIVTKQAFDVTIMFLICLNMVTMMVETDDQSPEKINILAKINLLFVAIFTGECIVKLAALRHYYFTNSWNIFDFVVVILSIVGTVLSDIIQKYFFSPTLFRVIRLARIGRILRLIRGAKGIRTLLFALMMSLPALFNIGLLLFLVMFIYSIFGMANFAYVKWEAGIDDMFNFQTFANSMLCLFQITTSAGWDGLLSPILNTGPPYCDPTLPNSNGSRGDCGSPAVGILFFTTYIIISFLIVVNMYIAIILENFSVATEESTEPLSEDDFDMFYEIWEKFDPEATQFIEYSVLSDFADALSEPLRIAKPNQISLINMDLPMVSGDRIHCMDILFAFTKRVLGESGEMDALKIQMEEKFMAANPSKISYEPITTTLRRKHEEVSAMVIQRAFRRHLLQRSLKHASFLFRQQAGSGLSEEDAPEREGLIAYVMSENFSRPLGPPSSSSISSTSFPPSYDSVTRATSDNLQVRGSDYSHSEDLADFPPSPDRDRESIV
# T2 sequence (Q15858 whole entry): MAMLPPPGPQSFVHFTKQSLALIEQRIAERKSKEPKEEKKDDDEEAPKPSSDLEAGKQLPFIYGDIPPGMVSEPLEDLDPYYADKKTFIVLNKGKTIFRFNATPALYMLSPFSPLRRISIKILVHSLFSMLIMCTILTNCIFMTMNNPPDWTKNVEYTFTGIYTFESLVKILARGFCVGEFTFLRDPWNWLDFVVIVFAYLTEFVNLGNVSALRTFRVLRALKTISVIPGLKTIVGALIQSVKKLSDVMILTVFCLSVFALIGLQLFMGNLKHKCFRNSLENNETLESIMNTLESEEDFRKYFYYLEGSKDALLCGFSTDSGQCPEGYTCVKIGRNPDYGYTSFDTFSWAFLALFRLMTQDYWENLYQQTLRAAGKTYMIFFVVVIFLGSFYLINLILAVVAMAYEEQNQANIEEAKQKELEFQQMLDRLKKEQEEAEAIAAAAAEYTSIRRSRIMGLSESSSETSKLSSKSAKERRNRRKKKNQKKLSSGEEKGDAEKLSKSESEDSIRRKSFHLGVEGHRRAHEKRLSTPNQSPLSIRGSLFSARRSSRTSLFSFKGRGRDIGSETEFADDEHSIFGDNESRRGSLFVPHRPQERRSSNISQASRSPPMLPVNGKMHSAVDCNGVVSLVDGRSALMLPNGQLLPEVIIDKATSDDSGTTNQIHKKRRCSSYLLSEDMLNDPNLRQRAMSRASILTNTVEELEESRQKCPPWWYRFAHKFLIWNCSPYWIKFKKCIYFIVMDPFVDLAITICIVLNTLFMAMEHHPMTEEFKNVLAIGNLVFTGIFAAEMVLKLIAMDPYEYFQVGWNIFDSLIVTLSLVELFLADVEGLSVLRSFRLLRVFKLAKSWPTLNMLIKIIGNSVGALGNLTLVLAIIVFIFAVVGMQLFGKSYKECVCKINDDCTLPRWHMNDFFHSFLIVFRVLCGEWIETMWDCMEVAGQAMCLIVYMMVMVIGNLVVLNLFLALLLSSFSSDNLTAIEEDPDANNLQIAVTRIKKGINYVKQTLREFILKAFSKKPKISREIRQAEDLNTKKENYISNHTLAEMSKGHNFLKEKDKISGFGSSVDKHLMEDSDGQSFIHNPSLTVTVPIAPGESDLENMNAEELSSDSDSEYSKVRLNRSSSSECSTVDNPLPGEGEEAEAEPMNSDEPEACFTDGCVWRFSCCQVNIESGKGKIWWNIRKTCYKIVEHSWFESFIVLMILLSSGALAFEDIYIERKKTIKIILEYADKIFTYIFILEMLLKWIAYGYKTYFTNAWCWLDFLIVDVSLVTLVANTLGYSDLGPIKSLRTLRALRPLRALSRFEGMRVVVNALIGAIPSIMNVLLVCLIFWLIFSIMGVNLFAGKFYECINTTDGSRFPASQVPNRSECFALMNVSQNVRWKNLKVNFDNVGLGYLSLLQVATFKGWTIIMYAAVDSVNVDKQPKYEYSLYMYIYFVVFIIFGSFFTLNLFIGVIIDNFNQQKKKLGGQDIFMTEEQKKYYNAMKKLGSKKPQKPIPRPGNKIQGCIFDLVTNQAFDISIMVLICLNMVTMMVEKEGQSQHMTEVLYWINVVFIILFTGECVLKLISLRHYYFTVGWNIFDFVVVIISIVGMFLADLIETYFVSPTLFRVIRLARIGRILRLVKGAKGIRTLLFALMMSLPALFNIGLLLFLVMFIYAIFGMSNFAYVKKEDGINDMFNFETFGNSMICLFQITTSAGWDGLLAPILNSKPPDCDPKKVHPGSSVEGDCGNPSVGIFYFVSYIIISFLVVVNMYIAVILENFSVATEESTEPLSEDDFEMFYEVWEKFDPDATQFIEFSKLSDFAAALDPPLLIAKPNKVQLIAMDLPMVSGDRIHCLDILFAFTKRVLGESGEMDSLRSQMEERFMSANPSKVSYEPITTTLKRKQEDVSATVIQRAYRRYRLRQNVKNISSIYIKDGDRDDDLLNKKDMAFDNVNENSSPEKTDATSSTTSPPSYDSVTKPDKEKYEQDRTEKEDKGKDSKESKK
# T9 sequence (O75762 whole entry): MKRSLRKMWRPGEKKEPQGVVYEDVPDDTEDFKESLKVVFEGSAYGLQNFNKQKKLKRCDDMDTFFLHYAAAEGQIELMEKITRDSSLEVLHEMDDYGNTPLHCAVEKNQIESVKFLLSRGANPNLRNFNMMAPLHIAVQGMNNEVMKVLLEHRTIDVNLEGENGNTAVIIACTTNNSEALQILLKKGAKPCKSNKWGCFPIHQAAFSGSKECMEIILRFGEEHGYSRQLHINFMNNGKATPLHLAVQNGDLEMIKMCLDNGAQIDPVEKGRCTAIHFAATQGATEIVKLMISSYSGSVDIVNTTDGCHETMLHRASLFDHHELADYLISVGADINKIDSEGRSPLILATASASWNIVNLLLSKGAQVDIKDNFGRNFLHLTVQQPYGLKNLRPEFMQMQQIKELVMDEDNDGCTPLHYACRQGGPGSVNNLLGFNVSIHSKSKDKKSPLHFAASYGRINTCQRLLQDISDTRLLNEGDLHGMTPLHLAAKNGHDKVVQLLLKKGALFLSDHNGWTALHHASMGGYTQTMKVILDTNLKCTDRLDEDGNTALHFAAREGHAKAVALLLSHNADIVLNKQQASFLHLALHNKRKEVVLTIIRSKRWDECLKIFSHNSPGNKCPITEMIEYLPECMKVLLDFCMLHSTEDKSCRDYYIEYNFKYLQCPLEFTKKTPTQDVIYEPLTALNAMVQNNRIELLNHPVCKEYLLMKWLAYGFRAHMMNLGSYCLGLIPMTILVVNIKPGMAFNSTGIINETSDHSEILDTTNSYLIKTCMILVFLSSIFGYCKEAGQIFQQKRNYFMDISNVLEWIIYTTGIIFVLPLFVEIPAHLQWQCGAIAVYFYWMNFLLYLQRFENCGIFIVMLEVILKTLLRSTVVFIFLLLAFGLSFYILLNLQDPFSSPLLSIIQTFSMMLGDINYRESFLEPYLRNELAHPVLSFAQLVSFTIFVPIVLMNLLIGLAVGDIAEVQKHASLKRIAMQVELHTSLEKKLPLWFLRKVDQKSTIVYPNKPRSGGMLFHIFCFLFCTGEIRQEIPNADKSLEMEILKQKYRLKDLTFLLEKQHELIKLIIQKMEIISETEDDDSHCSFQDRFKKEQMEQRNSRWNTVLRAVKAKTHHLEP
substance,measurement,setting,value
6 (GSVRIPVSCKHSGQCLKPCKDAGMRFGKCMNGKCDCTPK) [compound 6],Activity of 5HT3a with peptide (percentage of the reference compound),[1],84%
same,"Activity of 5HT3a with peptide, expressed as a percentage of the reference compound",[1],85%
same,"Activity of Nav1.7 with peptide, expressed as a percentage of the reference compound",[2]; [19],98%
same,"Activity of Nav1.7 with peptide, expressed as a percentage of the reference compound",[2]; [20],95%
same,Activity of Nav1.7 with peptide (percentage of the reference compound),[2]; [19],116%
same,Activity of Nav1.7 with peptide (percentage of the reference compound),[2]; [20],119%
same,"Activity of a3b4 with peptide, expressed as a percentage of the reference compound",[3]; peptide at 0.2 μM,100%
same,Activity of a3b4 with peptide (percentage of the reference compound),[3]; peptide at 20 μM,95%
same,"Activity of Kv1.3 with peptide, expressed as a percentage of the reference compound",[4]; peptide at 0.2 μM,25%
same,Activity of Kv1.3 with peptide (percentage of the reference compound),[4]; peptide at 20 μM,0%
same,"Activity of Kv1.2 with peptide, expressed as a percentage of the reference compound",[5]; peptide at 0.2 μM,81%
same,Activity of Kv1.2 with peptide (percentage of the reference compound),[5]; peptide at 20 μM,85%
same,"Activity of Kv1.1 with peptide, expressed as a percentage of the reference compound",[6]; peptide at 0.2 μM,96%
same,Activity of Kv1.1 with peptide (percentage of the reference compound),[6]; peptide at 20 μM,30%
same,"Activity of a4b2 with peptide, expressed as a percentage of the reference compound",[7]; peptide at 0.2 μM,71%
same,Activity of a4b2 with peptide (percentage of the reference compound),[7]; peptide at 20 μM,96%
same,"Activity of Kir2.1 with peptide, expressed as a percentage of the reference compound",[8]; peptide at 0.2 μM,96%
same,Activity of Kir2.1 with peptide (percentage of the reference compound),[8]; peptide at 20 μM,94%
same,"Activity of hERG with peptide, expressed as a percentage of the reference compound",[9]; peptide at 0.2 μM,107%
same,Activity of hERG with peptide (percentage of the reference compound),[9]; peptide at 20 μM,71%
same,"Activity of Nav1.5 with peptide, expressed as a percentage of the reference compound",[10]; [21],105%
same,"Activity of Nav1.5 with peptide, expressed as a percentage of the reference compound",[10]; [22],104%
same,Activity of Nav1.5 with peptide (percentage of the reference compound),[10]; [21],116%
same,Activity of Nav1.5 with peptide (percentage of the reference compound),[10]; [22],120%
same,"Activity of TRPA1 with peptide, expressed as a percentage of the reference compound",[11]; peptide at 0.2 μM,126%
same,Activity of TRPA1 with peptide (percentage of the reference compound),[11]; peptide at 20 μM,92%
same,"Activity of NR2B with peptide, expressed as a percentage of the reference compound",[12]; peptide at 0.2 μM,92%
same,Activity of NR2B with peptide (percentage of the reference compound),[12]; peptide at 20 μM,75%
same,"Activity of Cav2.1 with peptide, expressed as a percentage of the reference compound",[13]; peptide at 0.2 μM,109%
same,Activity of Cav2.1 with peptide (percentage of the reference compound),[13]; peptide at 20 μM,111%
same,"Activity of Kv2.1 with peptide, expressed as a percentage of the reference compound",[14]; peptide at 0.2 μM,103%
same,Activity of Kv2.1 with peptide (percentage of the reference compound),[14]; peptide at 20 μM,124%
same,"Activity of Cav2.2 with peptide, expressed as a percentage of the reference compound",[15]; peptide at 0.2 μM,103%
same,Activity of Cav2.2 with peptide (percentage of the reference compound),[15]; peptide at 20 μM,107%
same,"Activity of GABA with peptide, expressed as a percentage of the reference compound",[16]; peptide at 0.2 μM,104%
same,Activity of GABA with peptide (percentage of the reference compound),[16]; peptide at 20 μM,96%
same,"Activity of NR2A with peptide, expressed as a percentage of the reference compound",[17]; peptide at 0.2 μM,86%
same,Activity of NR2A with peptide (percentage of the reference compound),[17]; peptide at 20 μM,88%
same,"Activity of TRPV1 with peptide, expressed as a percentage of the reference compound",[18]; peptide at 0.2 μM,86%
same,Activity of TRPV1 with peptide (percentage of the reference compound),[18]; peptide at 20 μM,98%
